Assay results: patent US9215869 (UNIVERSITY OF GEORGIA RESEARCH FOUNDATION, dated 2015)

B1: AgAPN2ta, 30-kDa fragment of Anopheles gambiae aminopeptidase N AgAPN2 (residues 336-590 of SEQ ID NO:2) (receptor)
chain: STSMQQHRIAAVISHEIAHQWFGDLVTCEWWDVTWLNEGFARYYQYYGTALVETEWDLDHQFVVEQLQGVMQMDSLRSTHPMTHPVYTQAQTSGIFDNISYNKGAVMLRMMEHYLTTETFKTALRAYIKDRAFKTTRPEDLFNALNRYDPNARSYMEPWTVQPGYPLVTVTSHDTGFTITQKRFLVNEPDHNEQTAWPLPITFATKASEFSITRPAFYTGMTFEIPMQGASDVEYFILNNQQVGYYRVNYDAILW
modifications: biotinylated when used as probe
notes: Expressed in E. coli as inclusion bodies, solubilized in 8M urea, Ni-purified and dialyzed; An N-terminal Met from the NdeI site is implied by the primers; also called AgAPN2a; -2a; not shown: C-terminal vector-derived His tag (pET-30a(+), NdeI/XhoI; purified on Ni2+ column)
B2: AgAPN2tb, 28-kDa fragment of Anopheles gambiae aminopeptidase N AgAPN2 (residues 591-843 of SEQ ID NO:2) (receptor)
chain: GKISKALHSEGFGGIHVLNRAQIVDDLFNLARGDVVPYGTALEILEYLKEETEYAPWLAAVNGLTTLSRRIHADDEKLFTAHILDIFSKAYDIVKFQAPTATERRIFTYMRQNVLQWACNYGHEECSKAAVAEFHRYHQNPSVKVHPDLRQVVYCEGIRKGSTEEFEFLWNQYLTTNVATEQILILQGLGCVSSSELITDMLNGIASPHVRSQDKNNAFTYVINNPYTLPHVSRYLQQNHANWAASHGSYTNV
modifications: biotinylated when used as probe
notes: Expressed in E. coli as inclusion bodies, solubilized in 8M urea, Ni-purified and dialyzed; An N-terminal Met from the NdeI site is implied by the primers; also called AgAPN2b; biotin-AgAPN2tb; not shown: C-terminal vector-derived His tag (pET-30a(+), NdeI/XhoI; purified on Ni2+ column)

What was measured:
[1] = biological target: Cry11Ba toxin, trypsin-activated (Bacillus thuringiensis jegathesan) (Bacillus thuringiensis jegathesan) (UniProt Q45730); test: cell-based or functional assay
[2] = biological target: Cry11Ba toxin, trypsin-activated (Bacillus thuringiensis jegathesan) (Bacillus thuringiensis jegathesan) (UniProt Q45730); test: 125I-Cry11Ba binding to An. gambiae BBMV with 10 µM competitor peptide
[3] = biological target: brush border membrane vesicles (BBMV) of Anopheles gambiae 4th instar larvae (Anopheles gambiae); test: 2.5 nM 125I-Cry11Ba on 8 µg An. gambiae BBMV, no competitor
[4] = biological target: brush border membrane vesicles (BBMV) of Anopheles gambiae 4th instar larvae (Anopheles gambiae); test: 125I-Cry11Ba binding to An. gambiae BBMV in the presence of 10 µM AgAPN2tb, against no peptide
[5] = biological target: brush border membrane vesicles (BBMV) of Anopheles gambiae 4th instar larvae (Anopheles gambiae); test: 125I-Cry11Ba binding to An. gambiae BBMV in the presence of 10 µM AgAPN2tb/Del1, against no peptide
[6] = biological target: brush border membrane vesicles (BBMV) of Anopheles gambiae 4th instar larvae (Anopheles gambiae); test: 125I-Cry11Ba binding to An. gambiae BBMV in the presence of 10 µM AgAPN2tb/Del3, against no peptide
[7] = biological target: T1, Cry11Ba toxin, trypsin-activated (Bacillus thuringiensis jegathesan) (Bacillus thuringiensis jegathesan, UniProt Q45730 29-647, 125I-labelled (chloramine-T) in the BBMV binding assays; unlabelled when coated on microtiter plates); test: saturation ELISA, biotinylated peptide on plates coated with trypsinized Cry11Ba, one-site fit
T1 construct: also called trypsinized Cry11Ba; trypsinated Cry11Ba
T1 sequence (Q45730 29-647 limits assumed): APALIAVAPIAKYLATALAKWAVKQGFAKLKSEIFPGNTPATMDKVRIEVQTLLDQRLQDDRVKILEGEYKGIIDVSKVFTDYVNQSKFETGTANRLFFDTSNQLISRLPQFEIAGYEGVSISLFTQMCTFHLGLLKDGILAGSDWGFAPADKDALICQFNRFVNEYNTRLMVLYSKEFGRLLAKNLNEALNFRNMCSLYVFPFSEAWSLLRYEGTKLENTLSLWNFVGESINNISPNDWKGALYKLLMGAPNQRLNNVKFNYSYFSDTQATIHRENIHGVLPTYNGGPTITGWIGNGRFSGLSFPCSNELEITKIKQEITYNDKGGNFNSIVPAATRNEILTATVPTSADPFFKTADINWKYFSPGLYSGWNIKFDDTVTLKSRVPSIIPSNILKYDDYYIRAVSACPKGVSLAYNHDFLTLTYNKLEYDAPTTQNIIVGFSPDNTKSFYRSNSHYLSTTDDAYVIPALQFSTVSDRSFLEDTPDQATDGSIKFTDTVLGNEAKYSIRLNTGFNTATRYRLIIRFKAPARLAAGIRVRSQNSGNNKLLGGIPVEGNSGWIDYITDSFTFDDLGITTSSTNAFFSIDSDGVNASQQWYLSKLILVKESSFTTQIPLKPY

Cry11Ba toxin, trypsin-activated (Bacillus thuringiensis jegathesan) (Bacillus thuringiensis jegathesan), sequence (Q45730 29-647 limits assumed): as above

| Molecule | larval mortality with Cry11Ba plus peptide inclusion bodies (1:100), 24 h [1] [%] | toxin bound to BBMV in presence of the competitor [2] [fmol] | Kd [7] [µM] | other results |
| --- | --- | --- | --- | --- |
| AgAPN2ta/Del2 (AgAPN2ta with a middle 10-kDa segment deleted) (receptor) | 8.8 | 20.6 | – | – |
| AgAPN2ta/Del3 (AgAPN2ta with the third 10-kDa segment deleted) (receptor) | 5 | 19.5 | – | – |
| Cry11Ba toxin, trypsin-activated (Bacillus thuringiensis jegathesan) (from UniProt Q45730 29-647) (ligand) | – | – | – | toxin bound [3]: 27.9 fmol; percent increase of Cry11Ba binding to BBMV [4]: 24%; percent increase of Cry11Ba binding to BBMV [5]: 62%; percent increase of Cry11Ba binding to BBMV [6]: 45% |
| B1 | – | – | 0.0167 | – |
| B2 | – | – | 0.0264 | – |
